The record followed here is publication PMC5302886, “Structure and function of the mycobacterial transcription initiation complex with the essential regulator RbpA” (eLife, 2017).

For this assay, the target named is T1, M. smegmatis RNA polymerase β’ subunit (M. smegmatis, UniProt A0QS66 1-1317).
T1 construct: RNA polymerase β’ subunit of Mycobacterium smegmatis mc2155, native chromosomal copy of rpoC with a C-terminal PreScission site and His10 tag; In the crystal β’ stood as part of the whole σ^A-holoenzyme, not as an isolated subunit; also called RNAP β’-ppx-His10; rpoC product
In words: crystal structure; Msm RbpA/σ^A-holo mixed 1:1 with T10 upstream fork promoter DNA (RbpA/TIC, 446 kDa); hanging drop vapor diffusion at 22°C, 0.1 M Bis-Tris pH 6.0, 0.2 M LiSO4, 16% PEG 3350, 2.5% ethylene glycol; 2.76 Å. To be noted: both partners purified.

B1: M. smegmatis σ^A (natural protein)
chain: MAATKASPATEEPVKRTATKTPAKKAPAKRAAKSAAAKAGGKAPAKKAPAKRAAKGTAAKPEDGVTDDLEVTDDLEAEPGEDLDVEDTDLELDDLDSDDDTAVEDEEEEADAATPAVATAKAADDDIDEPSEKDKASGDFVWDEEESEALRQARKDAELTASADSVRAYLKQIGKVALLNAEEEVELAKRIEAGLYATQKLAELAEKGEKLPVQQRRDMQWICRDGDRAKNHLLEANLRLVVSLAKRYTGRGMAFLDLIQEGNLGLIRAVEKFDYTKGYKFSTYATWWIRQAITRAMADQARTIRIPVHMVEVINKLGRIQRELLQDLGREPTPEELAKEMDITPEKVLEIQQYAREPISLDQTIGDEGDSQLGDFIEDSEAVVAVDAVSFTLLQDQLQSVLETLSEREAGVVRLRFGLTDGQPRTLDEIGQVYGVTRERIRQIESKTMSKLRHPSRSQVLRDYLD
notes: primary (group 1) sigma factor σ^A of Mycobacterium smegmatis; domains σ^A2, σ^A3, σ^A4 named in the text; Plasmid Msm pET-SUMO σ^A received from C; Stallings; also called Msm σ^A; SigA
Turning to B1, the binding result is on record as “binds”.

B2: M. smegmatis RbpA (natural protein)
chain: MADRVLRGSRLGAVSYETDRNHDLAPRQVARYRTDNGEEFDVPFADDAEIPGTWLCRNGLEGTLIEGDVPEPKKVKPPRTHWDMLLERRSVEELEELLKERLDLIKAKRRGTGS
notes: RbpA of Mycobacterium smegmatis mc2155 (MSmeg_3858), cloned from genomic DNA into pet21C; elements NTT (25 residues, disordered in the crystal), CD, BL (residues 70-79), SID; 114 residues by the printed truncations (28-114aa, 72-114aa); the complex was held on the Ni2+ column by the His10-SUMO tag of σ^A and came in the flow-through after that tag was cleaved; The NTT was in the crystallised …
With B2, the binding result is “binds”.
